The values below come from the Human Domainome abundance scans (Beltran et al. 2025).

± gives the uncertainty stated by the source.

The chains are these.
B1: Cyclin-F, residues 28 to 80; numbered along this chain, P41002 (parent)
chain: RNLTILSLPEDVLFHILKWLSVEDILAVRAVHSQLKDLVDNHASVWACASFQE
B2: Ankyrin-1, residues 1405 to 1484; numbered along this chain, P16157 (parent)
chain: MKMAVISEHLGLSWAELARELQFSVEDINRIRVENPNSLLEQSVALLNLWVIREGQNANMENLYTALQSIDRGEIVNMLE

One series covers variants of B1. In words: abundance fitness (aPCA) (normalised: wild type 0, dead -1); higher = more abundant; growth selection in yeast, the domain comes from the species named. The settings on record: Homo sapiens.
Turning to A30V, the abundance fitness is -0.125 ± 0.098.

Consider E23S, for which the abundance fitness was -0.186 ± 0.11.

On to V31M, for which the abundance fitness is -0.681 ± 0.16.

With V31T, the abundance fitness came out at 0.124 ± 0.11.

In the case of V31N, the abundance fitness is -0.586 ± 0.31.

V31H: the abundance fitness is -0.976 ± 0.22.

V28N: the abundance fitness was -1.09 ± 0.37.

Turning to V28R, the abundance fitness is -0.833 ± 0.12.

For D24A, the abundance fitness is -0.631 ± 0.13.

In the case of D24M, the abundance fitness was -0.595 ± 0.17.

Consider D24L, for which the abundance fitness was -0.718 ± 0.11.

As for D24E, the abundance fitness is -0.388 ± 0.14.

L26A: the abundance fitness was -0.283 ± 0.1.

For the variant L17N, the abundance fitness is -0.926 ± 0.4.

Consider L17G, for which the abundance fitness was -0.547 ± 0.099.

V45P: the abundance fitness is -0.061 ± 0.11.

Turning to V45I, the abundance fitness is -0.026 ± 0.13.

V45G: the abundance fitness was -0.149 ± 0.095.

As for I5L, the abundance fitness came out at 0.12 ± 0.091.

For W46Q, the abundance fitness is -0.136 ± 0.15.

Regarding W46D, the abundance fitness was -0.043 ± 0.15.

Regarding V22Q, the abundance fitness is -0.267 ± 0.12.

Regarding V22E, the abundance fitness is -0.285 ± 0.11.

As to H15L, the abundance fitness was -0.204 ± 0.1.

In the case of V12R, the abundance fitness was -0.909 ± 0.13.

For the variant V12S, the abundance fitness is -0.85 ± 0.15.

In the case of A47I, the abundance fitness is -0.178 ± 0.23.

With A47E, the abundance fitness was -0.365 ± 0.14.

Turning to S50P, the abundance fitness was -0.1 ± 0.12.

With S50Q, the abundance fitness is 0.105 ± 0.12.

As to S50E, the abundance fitness is -0.114 ± 0.16.

With E10R, the abundance fitness is -0.054 ± 0.072.

For the variant E10C, the abundance fitness is -0.585 ± 0.15.

As to E10F, the abundance fitness is -0.449 ± 0.14.

Turning to E10A, the abundance fitness is -0.208 ± 0.12.

Turning to E10P, the abundance fitness was -0.357 ± 0.11.

Regarding E10I, the abundance fitness is -0.576 ± 0.16.

L20H: the abundance fitness is -0.812 ± 0.48.

With L20G, the abundance fitness is -0.605 ± 0.15.

For the variant L6M, the abundance fitness was -0.486 ± 0.15.

As to L6D, the abundance fitness was -0.593 ± 0.29.

On to D37S, for which the abundance fitness is 0.006 ± 0.098.

D37A: the abundance fitness is 0.027 ± 0.098.

For the variant E53Q, the abundance fitness was -0.051 ± 0.26.

As to C48P, the abundance fitness stood at 0.42 ± 0.12.

For the variant C48S, the abundance fitness is 0.14 ± 0.095.

Regarding C48F, the abundance fitness was -0.364 ± 0.13.

For C48A, the abundance fitness is -0.232 ± 0.11.

On to C48T, for which the abundance fitness is -0.066 ± 0.12.

Consider R29F, for which the abundance fitness is -0.574 ± 0.17.

As to H42N, the abundance fitness was -0.35 ± 0.19.

Consider H42F, for which the abundance fitness is -0.418 ± 0.13.

As for Q34N, the abundance fitness was -0.417 ± 0.13.

Regarding Q34V, the abundance fitness was -0.126 ± 0.061.

In the case of Q34T, the abundance fitness stood at 0.004 ± 0.071.

Q34L: the abundance fitness is -0.368 ± 0.064.

With V39W, the abundance fitness was -0.648 ± 0.15.

For T4Q, the abundance fitness was -0.481 ± 0.15.

As for T4I, the abundance fitness is -0.866 ± 0.23.

Regarding T4Y, the abundance fitness was -0.85 ± 0.29.

Consider T4G, for which the abundance fitness is -0.068 ± 0.082.

For L8T, the abundance fitness was -0.651 ± 0.35.

Turning to L8K, the abundance fitness was -0.744 ± 0.44.

S33H: the abundance fitness was -0.443 ± 0.11.

S33R: the abundance fitness was -0.158 ± 0.061.

On to L13Y, for which the abundance fitness was -0.306 ± 0.37.

For F14D, the abundance fitness was -0.762 ± 0.14.

Take K18M: the abundance fitness is -0.251 ± 0.16.

Consider K18T, for which the abundance fitness is -0.254 ± 0.13.

Take R1S: the abundance fitness amounted to 0.016 ± 0.15.

For the variant L3Q, the abundance fitness is -0.863 ± 0.31.

For L3A, the abundance fitness is -0.708 ± 0.13.

On to L3C, for which the abundance fitness is -0.316 ± 0.094.

In the case of L3D, the abundance fitness is -0.598 ± 0.21.

For P9D, the abundance fitness is -0.541 ± 0.16.

As to D40N, the abundance fitness is -0.664 ± 0.15.

On to S21Y, for which the abundance fitness is -0.566 ± 0.19.

On to S21V, for which the abundance fitness was -0.621 ± 0.12.

Turning to W19M, the abundance fitness was 0.33 ± 0.13.

On to W19T, for which the abundance fitness was -0.269 ± 0.14.

Regarding W19N, the abundance fitness came out at 0.223 ± 0.11.

With W19L, the abundance fitness is 0.293 ± 0.084.

For the variant A27H, the abundance fitness is -0.259 ± 0.38.

On to H32C, for which the abundance fitness is 0.209 ± 0.13.

Consider S7C, for which the abundance fitness was -0.316 ± 0.12.

Turning to D11R, the abundance fitness is -0.099 ± 0.08.

With D11I, the abundance fitness was -0.43 ± 0.25.

Turning to D11P, the abundance fitness was -0.132 ± 0.16.

With D11W, the abundance fitness is -0.731 ± 0.14.

In the case of D11S, the abundance fitness worked out at 0.093 ± 0.087.

Consider D11G, for which the abundance fitness is -0.104 ± 0.082.

In the case of F51W, the abundance fitness is -0.279 ± 0.13.

As to F51L, the abundance fitness is 0.092 ± 0.096.

Turning to F51V, the abundance fitness was -0.034 ± 0.083.

For the variant I16P, the abundance fitness is -0.673 ± 0.22.

As for S44K, the abundance fitness was -0.104 ± 0.11.

For the variant S44R, the abundance fitness was -0.281 ± 0.079.

With S44A, the abundance fitness is -0.119 ± 0.099.

For the variant S44Q, the abundance fitness is -0.306 ± 0.21.

Turning to S44N, the abundance fitness was 0.11 ± 0.24.

Take Q52E: the abundance fitness is -0.39 ± 0.22.

Regarding Q52N, the abundance fitness was -0.286 ± 0.19.

Consider N41Y, for which the abundance fitness was -0.569 ± 0.27.

In the case of N41M, the abundance fitness was -0.272 ± 0.16.

For the variant N41R, the abundance fitness stood at 0.241 ± 0.09.

As for N41L, the abundance fitness was -0.306 ± 0.1.

As for N41Q, the abundance fitness came out at 0.128 ± 0.14.

As for K36F, the abundance fitness was -0.811 ± 0.21.

Regarding K36M, the abundance fitness is -0.932 ± 0.2.

K36N: the abundance fitness is -0.779 ± 0.23.

For the variant I25S, the abundance fitness is -0.783 ± 0.13.

I25C: the abundance fitness is -0.527 ± 0.15.

Consider A43W, for which the abundance fitness was -0.264 ± 0.26.

Regarding A43V, the abundance fitness is -0.616 ± 0.19.

As for A43N, the abundance fitness is -0.303 ± 0.3.

Turning to A49Y, the abundance fitness was -0.341 ± 0.25.

Regarding A49W, the abundance fitness was -0.443 ± 0.12.

As to L38S, the abundance fitness was -0.302 ± 0.1.

As for L38H, the abundance fitness was -0.12 ± 0.2.

Variants of B2 are the subject of the next series. The description is as above. The settings on record: Homo sapiens.
M78A: the abundance fitness is -0.003 ± 0.061.

In the case of M78T, the abundance fitness worked out at 0.085 ± 0.091.

Regarding M78G, the abundance fitness was -0.085 ± 0.065.

As for M78I, the abundance fitness is 0.041 ± 0.12.

Take M78W: the abundance fitness is -0.19 ± 0.075.

For M78Q, the abundance fitness was -0.061 ± 0.098.

As to M78D, the abundance fitness was -0.013 ± 0.096.

In the case of M78E, the abundance fitness is -0.236 ± 0.14.

As to M78V, the abundance fitness amounted to 0.043 ± 0.061.

In the case of M78C, the abundance fitness was found to be 0.065 ± 0.085.

Consider M78N, for which the abundance fitness was -0.01 ± 0.15.

M78K: the abundance fitness turned out to be 0.087 ± 0.11.

On to M78H, for which the abundance fitness is -0.158 ± 0.15.

Turning to M78F, the abundance fitness was -0.146 ± 0.11.

With M78S, the abundance fitness was -0.121 ± 0.066.

M78L: the abundance fitness is 0.001 ± 0.059.

Turning to M78R, the abundance fitness is 0.034 ± 0.051.

On to I75H, for which the abundance fitness is -0.594 ± 0.27.

Take I75T: the abundance fitness was -0.342 ± 0.13.

Turning to I75M, the abundance fitness is -0.256 ± 0.17.

In the case of I75W, the abundance fitness was -0.663 ± 0.17.

With I75V, the abundance fitness is -0.098 ± 0.073.

With I75C, the abundance fitness was -0.734 ± 0.23.

On to I75E, for which the abundance fitness is -0.766 ± 0.23.

Take I75Y: the abundance fitness is -0.692 ± 0.36.

For I75R, the abundance fitness is -0.915 ± 0.14.

As for I75L, the abundance fitness was -0.199 ± 0.08.

On to I75D, for which the abundance fitness is -0.54 ± 0.39.

On to I75P, for which the abundance fitness is -0.546 ± 0.14.

As to I75S, the abundance fitness was -0.457 ± 0.1.

For the variant I75G, the abundance fitness was -0.509 ± 0.073.

Take I75F: the abundance fitness was -0.785 ± 0.45.

For I70M, the abundance fitness was -0.651 ± 0.19.

Regarding I70G, the abundance fitness is -0.911 ± 0.11.

As to I70V, the abundance fitness was -0.193 ± 0.054.

In the case of I70P, the abundance fitness was -0.8 ± 0.19.

For I70W, the abundance fitness is -0.99 ± 0.28.

For the variant I70L, the abundance fitness was -0.762 ± 0.1.

For I70S, the abundance fitness is -0.604 ± 0.13.

Take I70F: the abundance fitness is -0.693 ± 0.2.

Turning to I70D, the abundance fitness was -0.881 ± 0.26.

In the case of I70C, the abundance fitness is -0.384 ± 0.094.

Consider I70H, for which the abundance fitness is -0.404 ± 0.45.

In the case of I70R, the abundance fitness was -0.437 ± 0.078.

Turning to I70A, the abundance fitness is -0.808 ± 0.16.

I70Y: the abundance fitness is -0.152 ± 0.25.

For the variant I70T, the abundance fitness is -0.651 ± 0.14.

For D71G, the abundance fitness came out at 0.095 ± 0.04.
